Data reported in article PMC5676040, “The NOX Family of Proteins Is Also Present in Bacteria” (mBio, 2017).

Tests used:
[1] = test system: NC(=O)C1=CN([C@@H]2O[C@H](COP(=O)(O)OP(=O)(O)OC[C@H]3O[C@@H](n4cnc5c(N)ncnc54)[C@H](OP(=O)(O)O)[C@@H]3O)[C@@H](O)[C@H]2O)C=CC1; assay: purified protein; format: biochemical, Streptococcus pneumoniae; settings: 10 µM FAD; cytochrome c 100 µM; Figure 3D
[2] = test system: Cc1cc2nc3c(=O)[nH]c(=O)nc-3n(C[C@H](O)[C@H](O)[C@H](O)COP(=O)(O)OP(=O)(O)OC[C@H]3O[C@@H](n4cnc5c(N)ncnc54)[C@H](O)[C@@H]3O)c2cc1C; assay: purified protein; format: biochemical, Streptococcus pneumoniae; settings: 200 µM NADPH; cytochrome c 100 µM; Figure 3E; varied: cofactor
[3] = molecular target: T1, SpNOX (Streptococcus pneumoniae, UniProt Q8CZ28); assay: cytochrome c reduction, absorbance at […] nm; format: biochemical; settings: read-out: 50% inhibitory concentration
T1 construct: gene spr0531; full-length membrane protein, codon-optimized synthetic gene, N-terminal His tag (pQLink N), E. coli BL21(DE3) pLysS, purified in MNG detergent; bis-His heme ligands H69, H83, H129, H142
T1 sequence (Q8CZ28 1-400): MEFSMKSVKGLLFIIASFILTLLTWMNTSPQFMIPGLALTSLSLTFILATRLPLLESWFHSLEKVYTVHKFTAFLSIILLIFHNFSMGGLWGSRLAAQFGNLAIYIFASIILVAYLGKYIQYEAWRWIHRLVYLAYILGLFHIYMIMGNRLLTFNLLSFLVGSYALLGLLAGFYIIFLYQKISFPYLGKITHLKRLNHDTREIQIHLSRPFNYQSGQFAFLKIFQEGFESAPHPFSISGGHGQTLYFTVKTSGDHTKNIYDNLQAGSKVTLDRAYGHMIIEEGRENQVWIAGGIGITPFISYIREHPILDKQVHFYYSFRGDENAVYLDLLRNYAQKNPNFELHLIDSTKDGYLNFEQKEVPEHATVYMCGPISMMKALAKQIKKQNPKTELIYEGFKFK

Row | Compound | Km [1] | Km [2] | IC50 [3]
1 | SpNOX (Streptococcus pneumoniae R6) | 8 µM | 0.13 µM | 
2 | c1ccc2c(c1)[I+]c1ccccc1-2 [DPI] |  |  | ~5 µM
